In patent US20250074996A1 (Innovent, published 2025):
Read-outs that look alike come from different tables or passages of the source.

B1: TS-F2-1 (HB15H1G1/SP34.24/38456) (antibody, human IgG1, kappa, lambda, L234A L235A)
heavy 1: not shown
light 1: not shown
heavy 2: not shown
light 2: QAVVTQEPSLTVSPGGTVTLTCRSSTGAVTTSNYANWVQQKPGQAPRGLIGGTNKRAPGVPARFSGSLLGDKAALTLLGAQPEDEAEYYCALWYSNLWVFGQGTKLTVLGQPKAAPSVTLFPPSSEELQANKATLVCLISDFYPGAVTVAWKADSSPVKAGVETTTPSKQSNNKYAASSYLSLTPEQWKSHRSYSCQVTHEGSTVEKTVAPTECS
B2: TS-F2-2 (38456/SP34.24/HB15H1G1) (antibody, human IgG1, kappa, lambda, L234A L235A)
heavy 1: not shown
light 1: not shown
heavy 2: not shown
light 2: B1 light 2
B3: GPRC5D × CD3 (HB15H/hzsp34.24) (bispecific antibody, V domains shown)
VH 1: QVQLVESGGGVVQPGRSLRLSCTASGFTFSSYGLHWVRQAPGKGLEWVAVIWYDGSNKYYIDSVKGRFIISRDNSKNTLYLQMNSLRAEDTAVYYCARFTMFRGITLDYWGQGTLVTVSS
VL 1: DIQMTQSPSSLSASVGDRVTITCRASQRINSYLNWYQQKPGKAPKLLIYAASSLQSGVPSRFSGSGSGTDFTLTISNLQPEDFATYYCQQSYSTPLTFGGGTKVEIK
VH 2: EVQLVESGGGLVQPGGSLKLSCAASGFTFNTYAMNWVRQASGKGLEWVGRIRSKYNNYATYYADSVKDRFTISRDDSKSTLYLQMNSLKTEDTAVYYCARHGNFGQSYVSWFAYWGQGTTVTVSS
VL 2: QAVVTQEPSLTVSPGGTVTLTCRSSTGAVTTSNYANWVQQKPGQAPRGLIGGTNKRAPGVPARFSGSLLGDKAALTLLGAQPEDEAEYYCALWYSNLWVFGQGTKLTVL
B4: GPRC5D×CD3 bispecific antibody (ch7F5D4/hzsp34.24) (bispecific antibody, V domains shown)
VH 1: DVQLQESGPGLVKPSQSLSLTCTVTGYSITSDYAWNWIRQFPGNKLEWMVYIDYTGRTSYNPSLKSRISLTRDTSKNQFFLQFNSVTTEDTATYYCARGNYGRYYYVMDYWGQGTSVTVSS
VL 1: DIQMTQTTSSLSASLGDRVTISCRASQDIRNYLNWYQQRPDGTIKLLIYYTSRLHSGVPSRFSGSGSGTDYSLTISNLDQEDFATYFCQQGNMLPWTFGGGTSLEIK
VH 2: B3 VH 2
VL 2: B3 VL 2

Assays:
[1] = target: T1, CD3E on the surface of Jurkat-NFAT-Luc cells (UniProt P07766 23-207); assay: cell-based or functional assay
T1 sequence (P07766 23-207): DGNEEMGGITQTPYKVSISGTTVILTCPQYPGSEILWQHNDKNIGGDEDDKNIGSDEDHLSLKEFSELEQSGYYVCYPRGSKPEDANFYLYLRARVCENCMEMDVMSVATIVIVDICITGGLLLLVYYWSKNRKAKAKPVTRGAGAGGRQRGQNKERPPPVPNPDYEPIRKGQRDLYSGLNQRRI

[2] = target: T1, CD3E on the surface of Jurkat-NFAT-Luc …; assay: cell-based or functional assay; remark: listed apart in the source

| Binder | EC50 of Jurkat-NFAT-Luc luciferase activation; tumor cells L363 [1] [pM] | EC50 of Jurkat-NFAT-Luc luciferase activation; tumor cells H929 [1] [pM] | EC50 of Jurkat-NFAT-Luc luciferase activation; target cells huGPRC5D-GS-CHO [2] [pM] | EC50 of Jurkat-NFAT-Luc luciferase activation; tumor cells H929 [2] [pM] | EC50 of Jurkat-NFAT-Luc luciferase activation; tumor cells L363 [2] [pM] | EC50 of Jurkat-NFAT-Luc luciferase activation; tumor cells U266 [2] [pM] |
| --- | --- | --- | --- | --- | --- | --- |
| B1 | 240 | – | – | – | – | – |
| B2 | 130 | 10 | – | – | – | – |
| B3 | 280 | 10 | – | – | – | – |
| B4 | – | – | 5.66 | 7.72 | 5.62 | 36.1 |
